What is called Km is the substrate concentration at which the rate is half of its maximum.

The record followed here is article PMC2428106, “Regulation of intestinal hPepT1 (SLC15A1) activity by phosphodiesterase inhibitors is via inhibition of NHE3 (SLC9A3)” (Biochimica et Biophysica Acta, 2007).

Substrate in the series: CN(CC(=O)O)C(=O)CN
In words: cells, lysate or membranes. It counts as cell-based, Homo sapiens.

B1: hPepT1 (SLC15A1) (Homo sapiens) (protein)
chain: MGMSKSHSFFGYPLSIFFIVVNEFCERFSYYGMRAILILYFTNFISWDDNLSTAIYHTFVALCYLTPILGALIADSWLGKFKTIVSLSIVYTIGQAVTSVSSINDLTDHNHDGTPDSLPVHVVLSLIGLALIALGTGGIKPCVSAFGGDQFEEGQEKQRNRFFSIFYLAINAGSLLSTIITPMLRVQQCGIHSKQACYPLAFGVPAALMAVALIVFVLGSGMYKKFKPQGNIMGKVAKCIGFAIKNRFRHRSKAFPKREHWLDWAKEKYDERLISQIKMVTRVMFLYIPLPMFWALFDQQGSRWTLQATTMSGKIGALEIQPDQMQTVNAILIVIMVPIFDAVLYPLIAKCGFNFTSLKKMAVGMVLASMAFVVAAIVQVEIDKTLPVFPKGNEVQIKVLNIGNNTMNISLPGEMVTLGPMSQTNAFMTFDVNKLTRINISSPGSPVTAVTDDFKQGQRHTLLVWAPNHYQVVKDGLNQKPEKGENGIRFVNTFNELITITMSGKVYANISSYNASTYQFFPSGIKGFTISSTEIPPQCQPNFNTFYLEFGSAYTYIVQRKNDSCPEVKVFEDISANTVNMALQIPQYFLLTCGEVVFSVTGLEFSYSQAPSNMKSVLQAGWLLTVAVGNIIVLIVAGAGQFSKQWAEYILFAALLLVVCVIFAIMARFYTYINPAEIEAQFDEDEKKNRLEKSNPYFMSGANSQKQM
For B1, the Km is 1.0 ± 0.2 mM.
